# Test: label from the status in PepcDB records
row,Sequence,protein production
1,MWAHCSAIARTMVYPSFFCSGDWLKVAAENLCPGDEAYILLAKDADDIRGVLPLVRKRNALGGTDLHYLGSDFYPDPLGLICSPADRADCAAALRNHLLNAPDWDRLILDFLLEDEPADWTLPGKPVSVAPFKVLPRDFSELLGEFKKKKRYNLRAMVKKLLDAGGELAASSGPESNIAYLDALFFLHEKRASERSLDSSFTGPRVQSLHRALVAASDNVRFFGLRLNGQMIAVIYGFEFCNRFFYYQVAHDPDHGHLSPGTVLLYLVIEACCVNGLTEFNFLQGDETYKGIWTNDSRILYRCVLNRSTWRSRVFSAVEESRGYVKRAMGLMSRGN,failed
2,MAQEDVTAVATNGAGPVETHLVFTEFKQMLLVEAQKVGDAVTFYKSAFGAIESGHSLYPKRKLDQELPHVLSSELNLAGSSFVVCDVSSLPGFSTAKSEGSGVTFLLGTKDAEAAVAKAVDAGAVKVEVTEAEVELGFKGKVTDPFGVTWIFAEKKTVITDENKEV,not failed
3,MVLARAPEPHGGGNRLNSATMRVYLGKTHKHPHQNRRHTVSDISDYIVSHFKRSSREIGEVERRILELSHQKKLVSSDINAEFSAGASLGDRLADNIAKVGGSWGFILSFCFFLIFWAIINTIVLTTRAFDPYPFIFLNLLLSMLAAIQAPIIMMSQNRQAARDRFEAAKDYEVNLKAELEVLSLHEKIDVKVLAELAALRQDIAAIHHHVTRKDD,failed
4,MDTPLGSVLYITLGCAKNEVDTDRMRSLLTAAGYEEAFDPQDADIAIVNTCSFLASATSESIETTLELANEVQDGVRSCPIVMCGCVPSRYGDDLPDELPEVAAFVKADEEDGIVAVIDGVLGVEREIAAYIPQVKRTVEGAVAYVKISDGCNRFCSFCMIPYIRGRYHSRNSESIISEVRDLVAGGVREIVLIGQDTGIWGTDFADEDVADGSPRNLAQLLRAVAEAVRPHNVWVRVLYLQPEGMTDELIDTIRDTPEVLPYIDIPVQHCDARILKAMRRSGSRQELEDLFRDLRERIPGIVIRSTAMVGFPTETDDEFRDLIDFMDTVGFDYTSVFAYSREEGSLAAKMEGQVDEEVKLERAQEAMDLAESLGFAATAAHVGERAQVIVDGIEETEDGAELIGHAWFQAPDSDGAVHLDASEASVGDILTVEFTDSFCYELIGHVVE,failed
5,MLTNGMKYHEKLVDESSRNILFIGQDRISGLYDTIGILSIDRKNKKLKIIMIPRDLYIDYSSRVKHYLEENGRLNDPDFYKINAAHLIGPYMKYEGKFGAYSMNFLAELIKEIFDIEVHDYVRVNTEGFVQIVDLFGGVDINVPYDMHYDDIYQDLHIHINKGWNHLDGKKAEGFVRYRQSNDEMGNITHSIGDYERKKNQINFIKAFIEQHGTMSNIDKLPSLISTLNKYMKHSIGVGDVLTTYIGYAKDVVLYKYPIETYTVTGKDKYMNQRYYIVIENDNKTSKVVDLEHHHHHH,failed
6,RDSLFNDPNAPVLGNPEGDVTVVEFFDYNCPYCRRAMAEVQGLVDADPNVRLVYREWPILGEGSDFAARAALAARQQGKYEAFHWALMGMSGKANETGVLRIAREVGLDTEQLQRDMEAPEVTAHIAQSMALAQKLGFNGTPSFVVEDALVPGFVEQSQLQDAVDRARKAA,not failed
7,MLELNAKTTALVVIDLQEGILPFAGGPHTADEVVNRAGKLAAKFRASGQPVFLVRVGWSADYAEALKQPVDAPSPAKVLPENWWQHPAALGATDSDIEIIKRQWGAFYGTDLELQLRRRGIDTIVLCGISTNIGVESTARNAWELGFNLVIAEDACSAASAEQHNNSINHIYPRIARVRSVEEILNAL,not failed
8,MFERFTDRARRVIVLAQEEARMLNHNYIGTEHILLGLIHEGEGVAAKALESMGISLDAVRQEVEEIIGQGSQPTTGHIPFTPRAKKVLELSLREGLQMGHKYIGTEFLLLGLIREGEGVAAQVLVKLGADLPRVRQQVIQLLS,not failed
9,MKELNLTQGSVPKVLLQYAVPFLIANVLQALYGGADLFVVGQYDDSASVAAVAIGSQVMQTITGIILGITTGTTVLIAIATGAKDDKKVAFTIGSSVWLFSIIGVLLTLVMVVFHGRIAELMHTPIEAMADTKSYILVCSAGILFIVGYNVVCGILRGLGDSKTPLYFVALACVINIVLDFILVGYFHLGATGAAVATITAQGVSFMISLWFLYRHGFHFEFTRKDIRLNRNLAKKVMTLGAPIALQDALINISFLIITVIVNQMGVIASASLGVVEKIIVFAMLPPMAISSAVATMTAQNYGAGLIQRMNRCLASGIGIAFVFGVSVCVYSQFLPETLTAFFTKDAAVVSMAAEYLRGYSIDCIVVSFVFCINSYFSGQGNSLFPMIHSLIATFLFRIPLSYWFSQIDSSSLFIMGFAPPLSTVVSLLICIWYLRYTRKKVYLKGTMMPAMSN,failed
10,MIPLVSIIVPMYNVEPFIEECIDSLLRQTLSDIEIILVNDGTPDRSGEIAEDYAKRDARIRVIHQANGGLSSARNTGIKAARGTYIGFVDGDDYVSSAMFQRLTEEAEQNQLDIVGCGFYKQSSDRRTYVPPQLEANRVLTKPEMTEQLKHAHETRFIWYVWRYLYRRELFERANLLFDEDIRFAEDSPFNLSAFREAERVKMLDEGLYIYRENPNSLTEIPYKPAMDEHLQKQYQAKIAFYNHYGLAGACKEDLNVYICRHQLPMLLANACASPNSPKDIKKKIRQILSYDMVRQAVRHTPFQHEKLLRGERLVLALCKWRLTFLIKLFFEQRGTMKGSAKQALEHHHHHH,failed
11,MKRANIVKLIVDKKTHEKLKELAIATAKCWNEVNWLRMQQFKKGERVDFSKTEKDVYEKYKQILKVNTQQVARKNAEDWRSFFSLIEEKKEGKLPRWFKPRPPGYWKDKIGKYKLIIIIRKDRYEVNEEKRIIYLKDFKLSLSFKGKLKWHGEQGRLEIIYNEARRIWYAHIPVEVQNDVKAEGKLKASIDLGIVNLATVYVEDGSWYIFKGGSVLSQYEYYSKRISIVQKTLARHKQRRSRKMKLLYEKRKRFLKHALNSMVRKIMEELKKKGVSKLIIGYPKEISKDHGNKLTVNFWNYGYIIRRFEEVGEELGIEVVEVDEAWTSKSCSLCGEAHHRGRIKRGLYRCPRMGKVINADLNGAINILHIPESLGAGSGGQLPVRDRGNGLKAQPAVYRWSNGVGWVSSPTSYEVMKMKAVNRKPMNRPKGTLAL,failed
12,MKNPAEIDVADQQRLESMAVGGLIGFRTLLYKEVLRFWKVSFQTVAAPVLTAVLYLLIFGHVLEDRVRVYDQISYTAFLVPGLVMMSVLQNAFANSSSSLIQSKITGNLVFILLPPLSHWEMFGAYVVASIIRGLCVGLGVLLVTAWFANLHFAHIGWILVFGLMGAGILGTLGLIAGIWAEKFDQLAAFQNFLIMPATFLSGVFYSIHSLPAFWQAVSHANPFFYMIDGFRYGFFGVSDVPPLQSLAVVVVAFVVLAALALRLLRNGYKLRY,failed
13,MTNLKLFNFEGSKVRTVILDEEPFFVGIDVASILGYSNPQKAMRDHCKKPAESLVNDSLGRPRRTLVLSESDVYRLVLRSDLPSAEKFENWLMDEVLPSIRKHGAYMTDDTIEKAITDPDFLIRLATNLKEEKSKRLEAEQKIEAQRPKVLFADAVSDTEGTILIRDLAKLIQQNGVDIGEKRLFEWLRQNGYLISRRGTDYNRPTQKSMELGLFKIKETAIMRSSGAHTAITAKVTGKGQLYFVNKFLEQSLVAN,failed
14,MEWLEQLLGKEWSLVPAGGVTGDAYIAQNGQQKLFLKRNTSPFLAVLSAEGIVPKLLWTRRVTNGDVISAQKWLPGQKLEPEDMKLERVAKLLKKIHSSKALVQMIQRLGKQPLHAQELLQQLQLVLRGDIRDEETIQQGLQYLMDSLKDIEYNEFVVCHCDVNHNNWLLSDEDELFLIDWDGAVIADPALDLGMLLYWYIPRQEWSEWLGYYDIEMDESLLKRMRWYVIAQTILSIQWHTTKKQQAEAEYWHQYLQQLLASE,failed
15,MKVIKGLTAGLIFLFLCACGGQQIKDPLNYEVEPFTFQNQDGKNVSLESLKGEVWLADFIFTNCETICPPMTAHMTDLQKKLKAGNIDVRIISFSVDPENDKPKQLKKFAANYPLSFDNWDFLTGYSQSEIEEFALKSFKAIVKKPEGEDQVIHQSSFYLVGPDGKVLKDYNGVENTPYDDIISDVKSASTLK,not failed
16,MTMNPLPLQKEAEKRSPRLNSPFKSLMRIHWWMALAYLIVFCTGTLMVNLERGQFLRSELYDFHKSIGILTMALLTWRIFTLLQVWWRKYTKRPPKLSLAWWRTFTLHLSLYVFMGVIPISGFLLSNSFKANNVRFFSITLPDIFPQNEAMVEIGRNAHFWLAYTFLIFIFIHMLTYWKVIRANWRRWVNFIGKFQQQT,failed
17,MKSSNIGGQAVMEGIMMRHKDKYAIAVRRPDKEIELKVEDYKCTFGKAAFLKWPIIRGVVSFVDGLVVGTKCLMYSAEIAGDEEDEKEAAKNATLTEEELSAKKAKEAKQFQ,not failed
18,MSSDCLNVSYPATGCQKLFEVVDEHKLRVFYEKRMGQVVEADILGDEWKGYQLRIAGGNDKQGFPMKQGVLTHGRVRLLLKKGHSCYRPRRTGERKRKSVRGCIVDANMSVLALVVLKKGEKDIPGLTDTTIPRRLGPKRASKIRKLYNLSKEDDVRRFVVRRPLPAKDNKKATSKAPKIQRLITPVVLQRKHRRIALKKKRQIASKEASADYAKLLVQRKKESKAKREEAKRRRSASIRESKSSVSSDKK,failed
19,MIWRGEKLISNKVKIVRLLNKSKKSLLRGIFSRTTVIAILLILQLLFLLASYSWLEQYRVWLATVEHILTIGAVLYLVNSEMDALSRVTWLILVMIAPLLGAMFLMYTKFDWGYRGLKQRLETLIDESQIYLEDDPETLNQLKSSTSTTYHLVQYFEKAHGNFPVYRNTDVTFLPTGEAFFEKMKEELLKAKKYIFLEFFIIDEGIMWGEILSILEQKVEEGVEVRILYDGMIEITKLSFDYTKRLEKIGIKAKAFSPISPFISTYYNYRDHRKIVVIDGVVGMTGGVNLADEYINHIELFGHWKDSGIMLKGKAVDSFLLLFLQMWSITEEKMLVAPYLGVHDDLVENEGYVIPYGDSPLDTDKVGENVYIDILNHAREYVYIMTPYLILDSELEHAIQFAAERGVDVRIIMPGIPDKPIPYALAKTYYQALTKSGVKIYEYTLGFVHSKIFLSDNTKAVVGTINLDYRSLYHHFECAVYLYKVDAIQDIYRDYMDTLNKSRLVSLKDINNIPKFQKVIGIVTKTIAPLL,failed
20,MEGFLMKKTWIALSLLIAFSASSLLPMQAKEATLPKDERYHLVNTSEKGEYELLNTYDSYTEAEKNFQRLSKKYNNLGITYGDSFLQVEQGVVAFPTNSDCSLNTDYILDETNTNGYLNGCYGGDAAFLEYDSYTNQIKFKISGVVAWSDATALTVYPIEKLPNVSSFIVKDGILYHQLKSSATSPSFSSVLPLSKAPSYLKESTTYYSYDTHYFYEAYDQLIKDERLATHQHAINAKKPYYNYYQYLDHRSTTDYTPKQIQSYFKQNLGFQANITNFYDTDNYVHDILTQSLLYGNSEAFFQYQNQFGANALMMLSLSLNESALGKSYIAYNKNNLFGHAAFDSSAEESASRYQSVAASVYSHALHYLSESYLNPEAFQYYGGYFGNKAGGMNVAYASDPYWGEKSASYFMRMDRDMGYQDENNYQLGIAQGQAVKVYASASKKAKLLYTTEEGYDASFILQKKIKNKSGTWYQVQSDIALTKSKESIQDGSYPFATSIGYVKADDIDVITGAEKAANKSYLPITFDAVDGSFYPNTSSITLFVEKGQMPVILDPIKENALFDGWDITLEPATNALTYKATYKHIKNIEVIEKPQTKYNLGDTLNLKHGKIRVTFEDGSSKEVALNNDMVSGFHNDQSGKQRLTITYGGSTTYYDIEMDNQQEERINDVKKQAAHVIKTYMGKVGLNSEALDELIRLRNQLGQFDMQVLPRDQIRVIDRILQENLEPRYSVIIKDDTYDMQVSGLSIALQGESSFLNNIMPKTLRLDVNNDIPKEEKQFVEKVAKANGMNVASYLAIEGTDDFSTLKLQSQLVYSIQKPKKDIDHRIYSVYYISGKDIYQLPTTQSKNRIVFPNDKLGHYAVVWKHADSITHSKDFQEVNTIKQNGKDYIKVYILLPCIIILLTLALLALILYMRKRKIKPFKA,failed
